Where no end group is shown, it is not given here. Me2 = dimethyl on Lys side chain (K(me2))
B1: Clone A (RW24), recombinant rabbit anti-H1.0K180me2 monoclonal IgG antibody (antibody, V domains shown)
VH: QSVEESGGRLVTPGTPLTLTCTVSGFSLNNYVMMWVRQAPGEGLEWIAAITTGGTTYYANWAKGRFTISKTSTTVDLKIISPTTEDTATYFCARDLYGDTSDDIWDAFDPWGPGTLVTVSS
VL: DPVLTQTPSSVSAAVGGTVTISCQSSESVYKNNNLAWYQQKPGQPPKLLIYSASTLASGVPSRFKGSGSGTQFTLTISGVQCDDAATYYCLGVYSDIFAF
notes: Tested as a full-length recombinant rabbit monoclonal IgG

How the values were obtained:
[1] = test system: recombinant human H1.0 protein, full length, unmethylated
H1.0K180me2 peptide = target: T1, H1.0K180me2 peptide (human); test: ELISA on coated peptides, compared at the antibody concentration that gives the threshold O.D. 1.5
T1 construct: also called H1.0Kme2 peptide
T1 peptide: CAKPVKASKPKKAKPVK(Me2)PK
Method: The specificity of the recombinant rabbit anti-H1.0K180me2 monoclonal IgG antibody clones for H1.0K180me2 peptide was determined using ELISA in FIG. 2A. Wells were coated with H1.0K180me2 peptide; 50 ul of peptide solution (5 ug/ml) was used to coat each well. 100 ul of each clone antibody was added to wells in a 2× dilution series. Curves for each peptide were generated by plotting antibody concentration against measured O.D at 450 nm. In order to directly compare the binding efficiencies of the different clones, a threshold cut-off was selected that intersected the linear range of each of the clone titration curves (horizontal dashed line at O.D. 1.5). Clone A (RW24) has the highest binding affinity for H1.0K180me2 peptide.
The non-specific binding of the antibody clones to unmodified H1.0 peptide was also determined by ELISA as above in FIG. 2B. Clones D (RW28) and E (RW36) both bound to unmodified H1.0 peptide with high affinity. At the threshold concentration calculated above, Clone A (RW24) was 20× more efficient at binding H1.0K180me2 peptide than unmodified H1.0 peptide, Clone B (RW6): 23×, Clone C (RW37): 22×, Clone D (RW28): 2×, Clone E (RW36): 5×.

Row | Molecule | in vitro methylation reaction analysed by LC-MS [1] | fold more efficient at binding H1.0K180me2 peptide than unmodified H1.0 peptide (H1.0K180me2 peptide)
1 | recombinant G9A (methyltransferase) | G9A specifically methylates several C-terminal lysine residues, including H1.0K180me2 | –
2 | B1 | – | 20 ×
